Results as given in the supplement of paper PMC7125110.
± gives the standard error. For some of these results: Variants at the floor of the assay were thinned out.

B1: glmS ribozyme (parent)
chain: AUAAAAGCGCCAGAACUACAGAAAUGUAGUUGACGAGGAGGAGGUUUAUCGAAUUUUCGGCGGAUGCCUCCAAA

Assays:
Conditions in all cases: with glucosamine-6-phosphate
glucosamine-6-phosphate [1] = variants of: B1; assay: kcat; higher = faster cleavage; RNA array
Method in brief: (§1)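 Barcoded ribozyme variants, transcribed in situ by E. coli RNA polymerase on sequenced MiSeq chips, were followed via a hybridised Cy3 probe at 37 °C. Glucosamine-6-phosphate ranged from 40 μM to 10 mM in HEPES/KCl/Mg(OAc)2 buffer. kobs came from decay fits to per-tile medians, and kcat and KM from weighted Michaelis–Menten fits.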

glucosamine-6-phosphate [2] = variants of: B1; assay: self-cleavage kobs at 640 uM GlcN6P; higher = faster cleavage; RNA array
Method in brief: as §1

glucosamine-6-phosphate [3] = variants of: B1; assay: self-cleavage kobs at 2500 uM GlcN6P; higher = faster cleavage; RNA array
Method in brief: as §1

glucosamine-6-phosphate [4] = variants of: B1; assay: self-cleavage kobs at 10000 uM GlcN6P; higher = faster cleavage; RNA array
Method in brief: as §1

glucosamine-6-phosphate [5] = variants of: B1; assay: self-cleavage kobs at 40 uM GlcN6P; higher = faster cleavage; RNA array
Method in brief: as §1

glucosamine-6-phosphate [6] = variants of: B1; assay: KM; higher = weaker cofactor use; RNA array
Method in brief: as §1

glucosamine-6-phosphate [7] = variants of: B1; assay: self-cleavage kobs at 160 uM GlcN6P; higher = faster cleavage; RNA array
Method in brief: as §1

Variant	kcat (glucosamine-6-phosphate [1])	self-cleavage kobs at 640 uM GlcN6P (glucosamine-6-phosphate [2])	self-cleavage kobs at 2500 uM GlcN6P (glucosamine-6-phosphate [3])	self-cleavage kobs at 10000 uM GlcN6P (glucosamine-6-phosphate [4])	self-cleavage kobs at 40 uM GlcN6P (glucosamine-6-phosphate [5])	KM (glucosamine-6-phosphate [6])	self-cleavage kobs at 160 uM GlcN6P (glucosamine-6-phosphate [7])
G7U G60A	< 1e-05 s⁻¹	< 1e-05 s⁻¹	< 1e-05 s⁻¹	< 1e-05 s⁻¹			
G51U C71G	1.29e-05 ± 2.7e-06 s⁻¹						
U47G U55G	0.00601 ± 0.0021 s⁻¹	0.00195 ± 0.00043 s⁻¹	0.00249 ± 0.001 s⁻¹	0.00706 ± 0.0012 s⁻¹	0.000247 ± 4.9e-05 s⁻¹		
A14U G41U	0.000307 ± 3.4e-05 s⁻¹	0.000109 ± 1.4e-05 s⁻¹	0.000292 ± 5.4e-05 s⁻¹	0.000271 ± 3.1e-05 s⁻¹		1010 ± 220 µM	4.48e-05 ± 7.9e-06 s⁻¹
G32C C68U	1.25e-05 ± 1.1e-06 s⁻¹					1350 ± 620 µM	< 1e-05 s⁻¹
C11A U57C	< 1e-05 s⁻¹	< 1e-05 s⁻¹					
A14U G66U	0.000298 ± 3.6e-05 s⁻¹	6.34e-05 ± 1.1e-05 s⁻¹	0.000175 ± 2.9e-05 s⁻¹	0.000243 ± 2.6e-05 s⁻¹		2140 ± 550 µM	4.39e-05 ± 1.8e-05 s⁻¹
G29U U54C	0.00486 ± 0.0013 s⁻¹	0.00146 ± 0.00023 s⁻¹	0.00249 ± 0.00049 s⁻¹	0.00596 ± 0.0013 s⁻¹	0.000157 ± 3.1e-05 s⁻¹	1540 ± 590 µM	0.000421 ± 6.8e-05 s⁻¹
G66C C70A	8.82e-05 ± 1.9e-05 s⁻¹	4.17e-05 ± 1.3e-05 s⁻¹	6.82e-05 ± 1.2e-05 s⁻¹	9e-05 ± 1.4e-05 s⁻¹			8.3e-05 ± 3e-05 s⁻¹
G29A U47A	0.00354 ± 0.0016 s⁻¹	0.000727 ± 0.00012 s⁻¹	0.00153 ± 0.00024 s⁻¹	0.00308 ± 0.00042 s⁻¹	0.000101 ± 1.2e-05 s⁻¹		0.000152 ± 2.6e-05 s⁻¹
C50A C67A	2.1e-05 ± 4.7e-06 s⁻¹						
G13A A64G	0.0011 ± 0.0002 s⁻¹	0.000113 ± 2.2e-05 s⁻¹	0.000246 ± 5e-05 s⁻¹	0.000665 ± 6.7e-05 s⁻¹		6920 ± 2200 µM	
A12G A42U	4.92e-05 ± 2.6e-06 s⁻¹			1.63e-05 ± 6.6e-06 s⁻¹			
G38A A52U	< 1e-05 s⁻¹			< 1e-05 s⁻¹			
C58U A64G	0.00011 ± 1.9e-05 s⁻¹		5.74e-05 ± 1.1e-05 s⁻¹	8.51e-05 ± 1.1e-05 s⁻¹			
U30A U55G	0.00534 ± 0.002 s⁻¹	0.00138 ± 0.00022 s⁻¹	0.00239 ± 0.00033 s⁻¹	0.00586 ± 0.00095 s⁻¹	0.000142 ± 2.1e-05 s⁻¹		0.000286 ± 5.5e-05 s⁻¹
A12U A33U	0.000444 ± 0.0001 s⁻¹	7.77e-05 ± 8.6e-06 s⁻¹	0.00015 ± 1.6e-05 s⁻¹	0.000348 ± 3.2e-05 s⁻¹		3790 ± 1500 µM	
C10G G59U	3.49e-05 ± 2.3e-06 s⁻¹		2.34e-05 ± 6.6e-06 s⁻¹	3.25e-05 ± 8.1e-06 s⁻¹	< 1e-05 s⁻¹	1050 ± 290 µM	

Variant	kcat (glucosamine-6-phosphate [1])	self-cleavage kobs at 640 uM GlcN6P (glucosamine-6-phosphate [2])	self-cleavage kobs at 2500 uM GlcN6P (glucosamine-6-phosphate [3])	self-cleavage kobs at 10000 uM GlcN6P (glucosamine-6-phosphate [4])	self-cleavage kobs at 40 uM GlcN6P (glucosamine-6-phosphate [5])	KM (glucosamine-6-phosphate [6])	self-cleavage kobs at 160 uM GlcN6P (glucosamine-6-phosphate [7])
G32A A39C	0.00032 ± 6.8e-05 s⁻¹	6.63e-05 ± 1.2e-05 s⁻¹	0.000114 ± 2.1e-05 s⁻¹	0.000259 ± 3.2e-05 s⁻¹		3190 ± 1300 µM	
G13A G41A	6.21e-05 ± 2.2e-06 s⁻¹		3.77e-05 ± 1.2e-05 s⁻¹	5.25e-05 ± 8.1e-06 s⁻¹		1770 ± 270 µM	
G40C U47G	0.000514 ± 9.8e-05 s⁻¹	0.000157 ± 2.4e-05 s⁻¹	0.00041 ± 5.3e-05 s⁻¹	0.000412 ± 7.9e-05 s⁻¹		1190 ± 440 µM	7.96e-05 ± 1.8e-05 s⁻¹
A14U G32U	0.000874 ± 0.00012 s⁻¹	0.000142 ± 1.2e-05 s⁻¹	0.000422 ± 4e-05 s⁻¹	0.00066 ± 5.2e-05 s⁻¹		3050 ± 730 µM	7.67e-05 ± 1.7e-05 s⁻¹
G32A C50A	< 1e-05 s⁻¹						
G29U G32U	0.00125 ± 0.00041 s⁻¹	0.00011 ± 1.5e-05 s⁻¹	0.000243 ± 3e-05 s⁻¹	0.000702 ± 7.1e-05 s⁻¹		8560 ± 4000 µM	
G59U C61A C67A	1.63e-05 ± 4.2e-06 s⁻¹						
A12U A39C U56G	0.00242 ± 0.00054 s⁻¹	0.000287 ± 0.00011 s⁻¹	0.00138 ± 0.00027 s⁻¹	0.00168 ± 0.00031 s⁻¹	2.75e-05 ± 1e-05 s⁻¹	3430 ± 1000 µM	0.000109 ± 1.8e-05 s⁻¹
A15U A36G U69C C70A	1.84e-05 ± 4.3e-06 s⁻¹						
A48G C70U	0.000237 ± 3.3e-05 s⁻¹	5.39e-05 ± 1.1e-05 s⁻¹	0.000179 ± 2.8e-05 s⁻¹	0.000192 ± 2.1e-05 s⁻¹		1840 ± 620 µM	
A33G C67A	< 1e-05 s⁻¹			< 1e-05 s⁻¹	< 1e-05 s⁻¹		
C11U G13C A52U C70U	1.58e-05 ± 5.8e-06 s⁻¹			< 1e-05 s⁻¹	< 1e-05 s⁻¹		
U30A A42U	1.63e-05 ± 1.2e-07 s⁻¹			1.54e-05 ± 7.6e-06 s⁻¹		588 ± 46 µM	< 1e-05 s⁻¹
C10U U55C	3.56e-05 ± 9.4e-06 s⁻¹			1.93e-05 ± 9e-06 s⁻¹	< 1e-05 s⁻¹		
A15U G29C	0.00199 ± 0.00051 s⁻¹	0.000432 ± 7.6e-05 s⁻¹	0.000809 ± 0.00016 s⁻¹	0.00191 ± 0.0003 s⁻¹	4.56e-05 ± 9.9e-06 s⁻¹	2340 ± 910 µM	0.000116 ± 3.3e-05 s⁻¹
G29A A42G	0.00587 ± 0.0021 s⁻¹	0.00227 ± 0.00083 s⁻¹	0.00308 ± 0.0011 s⁻¹	0.00757 ± 0.0021 s⁻¹	0.00025 ± 4.4e-05 s⁻¹	1120 ± 510 µM	0.000587 ± 0.00015 s⁻¹
G44A	0.00053 ± 6.3e-05 s⁻¹	0.000135 ± 3e-06 s⁻¹	0.000389 ± 1e-05 s⁻¹	0.000426 ± 8.1e-06 s⁻¹		1820 ± 420 µM	3.7e-05 ± 2.4e-06 s⁻¹
